± gives the uncertainty stated by the source.
Assay: amyloid nucleation score (Sup35N fusion, yeast selection) (log enrichment); library NNK1; higher = more nucleation; inactive = no reads after selection
Summary of the method: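 The nucleation score is the DiMSum log enrichment of output over input reads, centred on the mode score of non-aggregating sequences. Only sequences with 100 or more input reads were scored, using Illumina sequencing of input and output plasmid inserts. Psi-negative yeast expressing Sup35N fused to peptides of 20 random codons were induced 24 hours with 100 μM copper sulfate and grown 7 days at 30°C on medium lacking adenine and uracil.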

Substance | amyloid nucleation score
SYSDICEVNLDTHKFVLGVR | -0.992 ± 0.49
YGVMSLRGVRLVQDVKTRSF | -0.849 ± 0.62
VASTTSGRHWSLRGHKRFGR | 1.28 ± 0.72
FYVSLRWV | 0.105 ± 0.45
NLGVKDLNTI | -0.905 ± 0.4
LILFLASV | 1.35 ± 0.27
HRGVLQLR | 0.764 ± 0.84
FLQCNRNSVGRLVAHLCCAR | inactive
RFIGVQQMVCVTYNWFKVLG | 1.16 ± 0.19
ISTPIDDPKCLGSLVYFHQM | -0.693 ± 0.53
LIPSRFMVNGDTIL | 0.971 ± 0.28
QSFSLS | 0.609 ± 0.33
TTLKGCSIY | 0.934 ± 0.41
IPWPRTPSSSGMHAL | 4.81 ± 0.074
VSFSCLMSPE | 0.126 ± 0.32
KLMVWITFGSWSRVGHWKGI | -0.387 ± 1.2
RMMLHRGLYYNVMLNYSLI | 0.86 ± 0.47
DFARQSSHPETWSSGDLSHS | 0.239 ± 0.96
EQHCNAMGVSRSGPWCDGEV | 0.051 ± 0.85
SQLVHERNSVGFEIVWMNHL | -0.249 ± 1.7
FGGWNYYYLAVQYIFLDTGV | 2.45 ± 0.15

Substance | amyloid nucleation score
YSTLRGFNYVFLKYIVK | 0.724 ± 0.54
ERYVLAPYQQTRRGNLQFRY | 0.615 ± 0.63
LVCVSQVYGALDTCGPVSMM | 0.379 ± 0.54
WPNTPSVTKWTYLFVLHPRM | -0.854 ± 0.95
TFAVLRNSGFM | 0.529 ± 0.84
ANRNDCTQFTDSK | -0.41 ± 0.27
SSSFRHAMRPSSISQRISPC | 0.354 ± 0.54
YGSDGCKRRKGSTALAIVTY | 0.423 ± 0.41
AHCLECGMNVNGTIF | -0.81 ± 1.6
RPEISTPFMYGYFVSGVGVA | inactive
GGLVYRLEKDSF | inactive
DFWMSRKYLNVSMQ | 3.98 ± 0.1
INTKRVRSRHSTR | -0.502 ± 0.79
MMAIIFMCNV | 3.05 ± 0.18
GLSGPRRQMSYMGWQRVRF | -0.247 ± 1.1
TMSHCVRRCGVMGGVVAFKG | -0.031 ± 0.38
TIDVCDSHLMAYTVDWNCVW | 0.505 ± 0.62
MFARLNF | 3.98 ± 0.062
GPISLWSPLRSVN | 0.444 ± 0.84
LNSLVKALQSVNNYVDLTYS | 0.358 ± 1.1
WGNFAVSWVFMEVNACRLRW | -0.323 ± 0.66

Substance | amyloid nucleation score
VCRPYVRLSPGGM | -1.27 ± 2.7
KKSYCYPFPFFSYV | 0.423 ± 0.65
KFRMCEFSGAYTYGVFKNLP | 0.834 ± 0.26
DAMWEMRVTTVRALARVCVC | 0.236 ± 1.1
YYYEPLFPRELHSQLYLL | -0.268 ± 0.8
CWCQAPVC | 0.124 ± 0.31
CGIING | -1.08 ± 1.7
YVIMWGGLTLYLWGCRKWWE | -0.103 ± 0.43
LLVSVFTRYFPGNVRVTWGT | -0.21 ± 0.32
SAMAWIPFTISPRFEFRTCN | 5.16 ± 0.061
VEIYWWGYPPKNSI | -0.239 ± 0.39
WESSAAVDTCTILKMTEKVG | 0.579 ± 1.2
RTPFFKRICK | -0.303 ± 0.69
FCYFRVFVKSILDDWN | 0.278 ± 0.31
GRGVPGCGCIRDRSLMTNWS | -0.664 ± 0.41
VDLLNGDWNRSLMKAKPVER | 0.17 ± 0.29
GEGQQSGVVSNLSGYRSNS | 0.418 ± 0.51
VNLRKEPDNRGLGLDFRLN | 0.001 ± 0.78
CNIVFSPGTDNVVEIRVRKL | 4.15 ± 0.062
GIKFQSVGGGVVANSVR | inactive
DIRDYGLWWDKWAEGC | 0.459 ± 0.3

Substance | amyloid nucleation score
CFRYVCIILMSVLMNYNFVY | -0.05 ± 0.2
KVGLDIWGASGTN | 0.525 ± 0.48
MAFYSTSLSFSEGGIRCSIY | 5.14 ± 0.08
SKYRLNAMWSACRQRWANIG | -0.995 ± 1.7
RVTYNSETTRCFCEVFAPYR | -0.875 ± 2.4
LMPARLNYERTALSMPKWSE | -0.38 ± 0.63
RCRIWEEIGPIGKGERSRGC | 0.405 ± 0.45
CSWFVYSNFFSHQMADMEWL | 0.183 ± 0.58
KYYMSLDFWGHALH | 2.76 ± 0.15
PRLLLGAHQSYLGACSAGYM | 1.06 ± 0.71
TNDTAPVWHTDLMTDWR | -0.079 ± 0.57
CRASYGFHVQRDALDR | -0.438 ± 0.75
KGLGGFLSICNSVVVRQVWR | 0.098 ± 0.72
YFLFFFHVDCLRNASC | -1.25 ± 2.7
SSVYVSIQLGGTLPRWGGVR | 1.19 ± 0.3
FLLHWFEYGIPNVYRSRRD | inactive
TDCHS | inactive
KGISVTCEGK | 1.24 ± 0.79
MCRVHFRNVTFCGALARSVL | -0.751 ± 0.43
NSWDISRSMNVLGNRVNRFP | -0.765 ± 0.37
LNGIFNNPY | -0.512 ± 0.78

Reference: the supplement of paper PMC12042874
